Biological target: PCSK9抗原 (前蛋白转化酶枯草溶菌素9, Proprotein convertase subtilisin/kexin type 9)
Test: SPR, Biacore T200, PCSK9 coupled to CM5 chip (~790 RU), VHH as analyte 218-13.5 nM

- Kd: 2.63 nM
- koff: 0.000584 s⁻¹
- kon: 222000 M⁻¹ s⁻¹
B1: PCSK9单域抗体VHHH12 (VHH)
VHH: QVQLQESGGGLVQAGGSLRLSCAASGRTFSDYAVGWFRQAPGKEREFVAGIGWSGGQTTYADSVKGRFTISRDNAKDTVYLQMNSLKPEDTAVYVCAASFLVIPGTVKTRYDSWGQGTQVTVPA
notes: Alpaca VHH expressed from pMECS in E. coli HB2151 and purified on a Ni column; also called 抗PCSK9单域抗体VHHH12; PCSK9单域抗体蛋白VHHH12; not shown: C-terminal tags from the pMECS vector (HA tag, detected with anti-HA antibody)

Source: patent publication CN116333149A (UNIV HENAN URBAN CONSTRUCTION, dated 2023)
